From IntAct's records for PubMed 25910212

B1: Beta-crystallin A4 (Homo sapiens), P53673 (parent)
chain: MTLQCTKSAGPWKMVVWDEDGFQGRRHEFTAECPSVLELGFETVRSLKVLSGAWVGFEHAGFQGQQYILERGEYPSWDAWGGNTAYPAERLTSFRPAACANHRDSRLTIFEQENFLGKKGELSDDYPSLQAMGWEGNEVGSFHVHSGAWVCSQFPGYRGFQYVLECDHHSGDYKHFREWGSHAPTFQVQSIRRIQQ
partner: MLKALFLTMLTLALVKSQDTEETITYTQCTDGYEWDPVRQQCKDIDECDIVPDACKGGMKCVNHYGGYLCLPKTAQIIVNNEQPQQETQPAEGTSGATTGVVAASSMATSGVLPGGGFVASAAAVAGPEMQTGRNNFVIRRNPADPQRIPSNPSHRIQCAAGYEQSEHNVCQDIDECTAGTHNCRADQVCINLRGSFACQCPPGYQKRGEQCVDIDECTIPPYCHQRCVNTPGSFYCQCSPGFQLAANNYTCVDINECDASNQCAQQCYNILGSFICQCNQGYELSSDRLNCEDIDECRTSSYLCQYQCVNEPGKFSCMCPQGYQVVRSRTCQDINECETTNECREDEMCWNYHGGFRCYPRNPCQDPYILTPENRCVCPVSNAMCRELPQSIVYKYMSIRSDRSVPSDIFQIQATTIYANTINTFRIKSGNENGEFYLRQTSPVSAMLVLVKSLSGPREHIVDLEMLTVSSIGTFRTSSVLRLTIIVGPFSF
B2: X-linked retinitis pigmentosa GTPase regulator (Homo sapiens), Q92834 (parent)
chain: MREPEELMPDSGAVFTFGKSKFAENNPGKFWFKNDVPVHLSCGDEHSAVVTGNNKLYMFGSNNWGQLGLGSKSAISKPTCVKALKPEKVKLAACGRNHTLVSTEGGNVYATGGNNEGQLGLGDTEERNTFHVISFFTSEHKIKQLSAGSNTSAALTEDGRLFMWGDNSEGQIGLKNVSNVCVPQQVTIGKPVSWISCGYYHSAFVTTDGELYVFGEPENGKLGLPNQLLGNHRTPQLVSEIPEKVIQVACGGEHTVVLTENAVYTFGLGQFGQLGLGTFLFETSEPKVIENIRDQTISYISCGENHTALITDIGLMYTFGDGRHGKLGLGLENFTNHFIPTLCSNFLRFIVKLVACGGCHMVVFAAPHRGVAKEIEFDEINDTCLSVATFLPYSSLTSGNVLQRTLSARMRRRERERSPDSFSMRRTLPPIEGTLGLSACFLPNSVFPRCSERNLQESVLSEQDLMQPEEPDYLLDEMTKEAEIDNSSTVESLGETTDILNMTHIMSLNSNEKSLKLSPVQKQKKQQTIGELTQDTALTENDDSDEYEEMSEMKEGKACKQHVSQGIFMTQPATTIEAFSDEEVGNDTGQVGPQADTDGEGLQKEVYRHENNNGVDQLDAKEIEKESDGGHSQKESEAEEIDSEKETKLAEIAGMKDLREREKSTKKMSPFFGNLPDRGMNTESEENKDFVKKRESCKQDVIFDSERESVEKPDSYMEGASESQQGIADGFQQPEAIEFSSGEKEDDEVETDQNIRYGRKLIEQGNEKETKPIISKSMAKYDFKCDRLSEIPEEKEGAEDSKGNGIEEQEVEANEENVKVHGGRKEKTEILSDDLTDKAEDHEFSKTEELKLEDVDEEINAENVESKKKTVGDDESVPTGYHSKTEGAERTNDDSSAETIEKKEKANLEERAICEYNENPKGYMLDDADSSSLEILENSETTPSKDMKKTKKIFLFKRVPSINQKIVKNNNEPLPEIKSIGDQIILKSDNKDADQNHMSQNHQNIPPTNTERRSKSCTIL
partner: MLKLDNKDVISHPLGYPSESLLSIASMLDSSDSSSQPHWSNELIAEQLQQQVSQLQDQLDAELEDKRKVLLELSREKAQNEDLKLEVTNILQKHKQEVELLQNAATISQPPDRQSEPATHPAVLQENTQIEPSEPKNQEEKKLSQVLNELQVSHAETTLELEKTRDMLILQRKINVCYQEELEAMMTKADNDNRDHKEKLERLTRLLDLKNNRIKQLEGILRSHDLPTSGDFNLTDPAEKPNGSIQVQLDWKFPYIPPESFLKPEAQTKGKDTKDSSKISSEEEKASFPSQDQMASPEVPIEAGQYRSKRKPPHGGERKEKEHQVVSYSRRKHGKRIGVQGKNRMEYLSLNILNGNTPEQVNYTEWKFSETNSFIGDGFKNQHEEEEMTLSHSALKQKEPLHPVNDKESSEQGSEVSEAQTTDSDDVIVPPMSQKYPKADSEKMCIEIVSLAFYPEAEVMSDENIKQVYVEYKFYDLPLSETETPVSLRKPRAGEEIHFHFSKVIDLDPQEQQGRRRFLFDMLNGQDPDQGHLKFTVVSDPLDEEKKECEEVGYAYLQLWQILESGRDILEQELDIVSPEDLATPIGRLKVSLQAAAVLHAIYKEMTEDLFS
B3: Iodotyrosine deiodinase 1 (Homo sapiens), Q6PHW0 (parent)
chain: MYFLTPILVAILCILVVWIFKNADRSMEKKKGEPRTRAEARPWVDEDLKDSSDLHQAEEDADEWQESEENVEHIPFSHNHYPEKEMVKRSQEFYELLNKRRSVRFISNEQVPMEVIDNVIRTAGTAPSGAHTEPWTFVVVKDPDVKHKIRKIIEEEEEINYMKRMGHRWVTDLKKLRTNWIKEYLDTAPILILIFKQVHGFAANGKKKVHYYNEISVSIACGILLAALQNAGLVTVTTTPLNCGPRLRVLLGRPAHEKLLMLLPVGYPSKEATVPDLKRKPLDQIMVTV
partner: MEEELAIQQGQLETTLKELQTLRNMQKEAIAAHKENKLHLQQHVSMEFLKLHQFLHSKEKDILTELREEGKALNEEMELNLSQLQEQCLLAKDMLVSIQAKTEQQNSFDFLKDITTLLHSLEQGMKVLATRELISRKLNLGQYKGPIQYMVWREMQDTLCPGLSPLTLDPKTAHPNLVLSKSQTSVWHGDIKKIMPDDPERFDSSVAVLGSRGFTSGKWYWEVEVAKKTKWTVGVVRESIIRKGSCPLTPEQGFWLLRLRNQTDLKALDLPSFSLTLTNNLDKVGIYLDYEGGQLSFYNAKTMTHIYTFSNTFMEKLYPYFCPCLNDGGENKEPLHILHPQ

Variants of: B1
Conditions: with fbln3_human EFEMP1, Q12805

effect of a mutation on the interaction	Variant
disrupting interaction strength	V36M
disrupting interaction strength	L69P

Variants of: B2
Conditions: with RPGRIP1, Q96KN7-4

effect of a mutation on the interaction	Variant
disrupting interaction strength	H98Q
with no effect	R425K
with no effect	G436D
disrupting interaction strength	T255I
with no effect	Q184H

Variants of: B3
Conditions: with TRIM69, Q86WT6-2

effect of a mutation on the interaction	Variant
with no effect	I116T
with no effect	A220T
with no effect	R101W
